Two molecules from patent US20090068164 (published 2009) can be followed below.

Data set [1] addresses LacA-Zif268 + PE1A-LacB (split beta-lactamase SEER pair) (artificial, UniProt O73693; SEQ:189-286,SEQ:1-88). The data set can be described thus: split beta-lactamase reassembly on cognate target.
For data set [2], the target named is NGFP-Zif268 + CGFP-MBD2 (human MBD2 residues 147-215; mCpG-SEER pair) (artificial, UniProt P08046;Q9UBB5 P08046:333-419,Q9UBB5:147-215). The data set can be described thus: split GFP reassembly; used as reference (relative fluorescence 1) for specificity set; Zn buffer, 4 C.

B1: Zif-0-PE1A (structured_DNA)
DNA: GGCGTTATTTATCGCCCACGCGGGTTTTCCCGCGTGGGCGATAAATAACGCC
Turning to B1, in data set [1], the binding result is on record as “binds”.

B2: mCpG-Zif268 (dsDNA)
DNA 1: GCGTACGTAGGACGATACGCCCACGCCACCG
DNA 2: CGGTGGCGTGGGCGTATCGTCCTACGTACGC
modifications: 5mC at the CpG on both strands (GTAmCGTA)
Take B2: the binding result in data set [2] is recorded as “binds”.
